Article PMC7160950, “Identification and analysis of KLF13 variants in patients with congenital heart disease” (BMC Medical Genetics, 2020)

Biological target: Kruppel-like factor 13 (KLF13), wild type, myc-tagged (human, UniProt Q9Y2Y9 1-288)
Experiment: cell-based or functional assay

Kruppel-like factor 13 (KLF13), wild type, myc-tagged, sequence (Q9Y2Y9 whole entry): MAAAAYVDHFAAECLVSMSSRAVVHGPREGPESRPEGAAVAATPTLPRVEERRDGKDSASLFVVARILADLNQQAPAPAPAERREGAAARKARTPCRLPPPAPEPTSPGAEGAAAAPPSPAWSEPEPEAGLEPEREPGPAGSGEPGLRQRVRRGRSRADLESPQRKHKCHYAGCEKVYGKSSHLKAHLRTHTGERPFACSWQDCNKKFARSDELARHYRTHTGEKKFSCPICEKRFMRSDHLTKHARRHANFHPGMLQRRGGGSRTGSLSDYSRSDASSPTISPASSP

- BNP-luciferase reporter activation in NIH 3 T3 cells cotransfected with KLF13 and TBX5: ≤ 75 fold
B1: TBX5 (natural protein, UniProt Q99593 1-518, looked up)
chain: MADADEGFGLAHTPLEPDAKDLPCDSKPESALGAPSKSPSSPQAAFTQQGMEGIKVFLHERELWLKFHEVGTEMIITKAGRRMFPSYKVKVTGLNPKTKYILLMDIVPADDHRYKFADNKWSVTGKAEPAMPGRLYVHPDSPATGAHWMRQLVSFQKLKLTNNHLDPFGHIILNSMHKYQPRLHIVKADENNGFGSKNTAFCTHVFPETAFIAVTSYQNHKITQLKIENNPFAKGFRGSDDMELHRMSRMQSKEYPVVPRSTVRQKVASNHSPFSSESRALSTSSNLGSQYQCENGVSGPSQDLLPPPNPYPLPQEHSQIYHCTKRKEEECSTTDHPYKKPYMETSPSEEDSFYRSSYPQQQGLGASYRTESAQRQACMYASSAPPSEPVPSLEDISCNTWPSMPSYSSCTVTTVQPMDRLPYQHFSAHFTSGPLVPRLAGMANHGSPQLGEGMFQHQTSVAHQPVVRQCGPQTGLQSPGTLQPPEFLYSHGVPRTLSPHQYHSVHGVGMVPEWSDNS
